Measurements: patent publication US20160008398A1

Experiments:
[1] = biological target: CMV pp65 presented by HLA-A*0201
[2] = biological target: 4-1BB (human) (UniProt Q07011)

Granzyme B density near the immunological synapse (fold reduction) [2] | Substance | T cell expansion after weekly restimulation with HLA-A*0201^+ pp65-transduced Caco-2 tumor cells [1] [fold]
– | CMV pp65-specific T lymphocytes (cells without a defined receptor) | 209
2.02 | dsRed-monomer-4-1 BBL fusion protein (from UniProt P41273) (ligand) | –
